These results are taken from patent publication US20150344570A1 (published 2015).

To fix the notation:
T1: FcγRIIa R (FcγRIIa, allotype with Arg at position 131), extracellular domain with C-terminal His tag (human, UniProt P12318 34-217)
T1 construct: extracellular domain; also called FcγRIIa R type; 2aR
T1 sequence (looked up): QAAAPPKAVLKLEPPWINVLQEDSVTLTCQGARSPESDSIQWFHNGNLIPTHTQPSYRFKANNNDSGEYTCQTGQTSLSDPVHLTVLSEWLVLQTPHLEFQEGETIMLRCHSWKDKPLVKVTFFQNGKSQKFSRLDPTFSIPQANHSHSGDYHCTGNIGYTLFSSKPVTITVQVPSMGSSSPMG

B1: GpH7-A5/GpH7-B3 variant Q295_10E/GpL16-k0 (antibody, human IgG1, kappa)
heavy 1: not shown
heavy 2: not shown
light: DIVMTQSPLSLPVTPGEPASISCQASESLVHSNRNTYLHWYLQKPGQSPQLLIYKVSNRFSGVPDRFSGSGSGTDFTLKISRVEAEDVGVYYCSQNTHVPPTFGQGTKVEIERTVAAPSVFIFPPSDEQLKSGTASVVCLLNNFYPREAKVQWKVDNALQSGNSQESVTEQDSKDSTYSLSSTLTLSKADYEKHKVYACEVTHQGLSSPVTKSFNRGEC
notes: also called He Ab
B2: GpH7-A5/GpH7-B3 variant Y296_16H/GpL16-k0 (antibody, human IgG1, kappa)
heavy 1: not shown
heavy 2: not shown
light: B1 light
notes: also called He Ab
B3: GpH7-A5/GpH7-B3 variant S239_07I/GpL16-k0 (antibody, human IgG1, kappa)
heavy 1: not shown
heavy 2: not shown
light: B1 light
notes: also called He Ab
B4: GpH7-A5/GpH7-B3 variant S337_20W/GpL16-k0 (antibody, human IgG1, kappa)
heavy 1: not shown
heavy 2: not shown
light: B1 light
notes: also called He Ab
B5: GpH7-A5/GpH7-B3 variant S337_11K/GpL16-k0 (antibody, human IgG1, kappa)
heavy 1: not shown
heavy 2: not shown
light: B1 light
notes: also called He Ab
B6: GpH7-A5/GpH7-B3 variant S324_04F/GpL16-k0 (antibody, human IgG1, kappa)
heavy 1: not shown
heavy 2: not shown
light: B1 light
notes: also called He Ab
B7: GpH7-A5/GpH7-B3 variant T335_05P/GpL16-k0 (antibody, human IgG1, kappa)
heavy 1: not shown
heavy 2: not shown
light: B1 light
notes: also called He Ab
B8: GpH7-A5/GpH7-B3 variant S239_05P/GpL16-k0 (antibody, human IgG1, kappa)
heavy 1: not shown
heavy 2: not shown
light: B1 light
notes: also called He Ab
B9: GpH7-A5/GpH7-B3 variant T335_07I/GpL16-k0 (antibody, human IgG1, kappa)
heavy 1: not shown
heavy 2: not shown
light: B1 light
notes: also called He Ab
B10: GpH7-A5/GpH7-B3 variant Y296_07I/GpL16-k0 (antibody, human IgG1, kappa)
heavy 1: not shown
heavy 2: not shown
light: B1 light
notes: also called He Ab
B11: GpH7-A5/GpH7-B3 variant S337_04F/GpL16-k0 (antibody, human IgG1, kappa)
heavy 1: not shown
heavy 2: not shown
light: B1 light
notes: also called He Ab
B12: GpH7-A5/GpH7-B3 variant S337_18N/GpL16-k0 (antibody, human IgG1, kappa)
heavy 1: not shown
heavy 2: not shown
light: B1 light
notes: also called He Ab
B13: GpH7-A5/GpH7-B3 variant T335_12R/GpL16-k0 (antibody, human IgG1, kappa)
heavy 1: not shown
heavy 2: not shown
light: B1 light
notes: also called He Ab
B14: GpH7-A5/GpH7-B3 variant S337_15Y/GpL16-k0 (antibody, human IgG1, kappa)
heavy 1: not shown
heavy 2: not shown
light: B1 light
notes: also called He Ab
B15: GpH7-A5/GpH7-B3 variant S337_09D/GpL16-k0 (antibody, human IgG1, kappa)
heavy 1: not shown
heavy 2: not shown
light: B1 light
notes: also called He Ab
B16: GpH7-A5/GpH7-B3 variant S337_16H/GpL16-k0 (antibody, human IgG1, kappa)
heavy 1: not shown
heavy 2: not shown
light: B1 light
notes: also called He Ab
B17: GpH7-A5/GpH7-B3 variant T335_15Y/GpL16-k0 (antibody, human IgG1, kappa)
heavy 1: not shown
heavy 2: not shown
light: B1 light
notes: also called He Ab
B18: GpH7-A5/GpH7-B3 variant S337_12R/GpL16-k0 (antibody, human IgG1, kappa)
heavy 1: not shown
heavy 2: not shown
light: B1 light
notes: also called He Ab
B19: GpH7-A5/GpH7-B3 variant T335_20W/GpL16-k0 (antibody, human IgG1, kappa)
heavy 1: not shown
heavy 2: not shown
light: B1 light
notes: also called He Ab
B20: GpH7-A5/GpH7-B3 variant T335_10E/GpL16-k0 (antibody, human IgG1, kappa)
heavy 1: not shown
heavy 2: not shown
light: B1 light
notes: also called He Ab
B21: GpH7-A5/GpH7-B3 variant S267_09D/GpL16-k0 (antibody, human IgG1, kappa)
heavy 1: not shown
heavy 2: not shown
light: B1 light
notes: also called He Ab
B22: GpH7-A5/GpH7-B3 variant Y296_20W/GpL16-k0 (antibody, human IgG1, kappa)
heavy 1: not shown
heavy 2: not shown
light: B1 light
notes: also called He Ab
B23: GpH7-A5/GpH7-B3 variant Y296_13S/GpL16-k0 (antibody, human IgG1, kappa)
heavy 1: not shown
heavy 2: not shown
light: B1 light
notes: also called He Ab
B24: GpH7-A5/GpH7-B3 variant S337_07I/GpL16-k0 (antibody, human IgG1, kappa)
heavy 1: not shown
heavy 2: not shown
light: B1 light
notes: also called He Ab
B25: GpH7-A5/GpH7-B3 variant S337_06M/GpL16-k0 (antibody, human IgG1, kappa)
heavy 1: not shown
heavy 2: not shown
light: B1 light
notes: also called He Ab
B26: GpH7-A5/GpH7-B3 variant S239_18N/GpL16-k0 (antibody, human IgG1, kappa)
heavy 1: not shown
heavy 2: not shown
light: B1 light
notes: also called He Ab
B27: GpH7-A5/GpH7-B3 variant S337_19Q/GpL16-k0 (antibody, human IgG1, kappa)
heavy 1: not shown
heavy 2: not shown
light: B1 light
notes: also called He Ab

This assay deals with T1, FcγRIIa R (FcγRIIa, allotype with Arg …). The assay is described as follows: SPR (Biacore), antibody captured on antigen peptide chip, FcγR as analyte; relative binding. (SPR reads the build-up and loss of mass on a sensor chip optically.)
Regarding B1, the He/Con_2aR was 102 % of GpH7-A5/GpH7-B3/GpL16-k0 (=100).
For B2 the value was 105 % of GpH7-A5/GpH7-B3/GpL16-k0 (=100); for B3, 102 % of GpH7-A5/GpH7-B3/GpL16-k0 (=100); for B4, 110 % of GpH7-A5/GpH7-B3/GpL16-k0 (=100).
Consider B5, for which the He/Con_2aR was 103 % of GpH7-A5/GpH7-B3/GpL16-k0 (=100).
For the molecule B6, the He/Con_2aR is 104 % of GpH7-A5/GpH7-B3/GpL16-k0 (=100).
Turning to B7, the He/Con_2aR is 104 % of GpH7-A5/GpH7-B3/GpL16-k0 (=100).
In the case of B8, the He/Con_2aR was 106 % of GpH7-A5/GpH7-B3/GpL16-k0 (=100).
Regarding B9, the He/Con_2aR was 109 % of GpH7-A5/GpH7-B3/GpL16-k0 (=100).
As to B10, the He/Con_2aR was 101 % of GpH7-A5/GpH7-B3/GpL16-k0 (=100).
Turning to B11, the He/Con_2aR is 105 % of GpH7-A5/GpH7-B3/GpL16-k0 (=100).
Consider B12, for which the He/Con_2aR is 107 % of GpH7-A5/GpH7-B3/GpL16-k0 (=100).
B13: the He/Con_2aR was 100 % of GpH7-A5/GpH7-B3/GpL16-k0 (=100).
For B14, the He/Con_2aR was 105 % of GpH7-A5/GpH7-B3/GpL16-k0 (=100).
For the molecule B15, the He/Con_2aR was 115 % of GpH7-A5/GpH7-B3/GpL16-k0 (=100).
For B16 the value was 109 % of GpH7-A5/GpH7-B3/GpL16-k0 (=100).
Regarding B17, the He/Con_2aR was 111 % of GpH7-A5/GpH7-B3/GpL16-k0 (=100).
Regarding B18, the He/Con_2aR was 107 % of GpH7-A5/GpH7-B3/GpL16-k0 (=100).
Consider B19, for which the He/Con_2aR is 109 % of GpH7-A5/GpH7-B3/GpL16-k0 (=100).
Consider B20, for which the He/Con_2aR was 111 % of GpH7-A5/GpH7-B3/GpL16-k0 (=100).
For B21 the value was 173 % of GpH7-A5/GpH7-B3/GpL16-k0 (=100); for B22, 110 % of GpH7-A5/GpH7-B3/GpL16-k0 (=100).
For B23 the value was 102 % of GpH7-A5/GpH7-B3/GpL16-k0 (=100); for B24, 109 % of GpH7-A5/GpH7-B3/GpL16-k0 (=100).
Turning to B25, the He/Con_2aR is 105 % of GpH7-A5/GpH7-B3/GpL16-k0 (=100).
B26: the He/Con_2aR was 111 % of GpH7-A5/GpH7-B3/GpL16-k0 (=100).
Turning to B27, the He/Con_2aR is 106 % of GpH7-A5/GpH7-B3/GpL16-k0 (=100).
